Laboratory results as given in the supplement of paper PMC10567573.

B1: PCMTD2 (parent)
chain: FFIRTSDSFDKFDFCEPSFVTGNC

Variants of: B1
Assay: protein stability index of a GFP-peptide fusion (GPS, HEK-293T) (PSI 1-6); higher = more stable
Conditions: c terminus: a fixed tail appended
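Further: lentivirally expressed fusions sorted by FACS into six bins by GFP to DsRed ratio, PSI derived from sequencing read proportions per bin multiplied by bin number.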

Variant	protein stability index
E16R	2.11
E16V	2.9
E16Q	2.02
E16I	2.85
E16M	3.1
E16G	2.2
E16W	3.77
E16S	2.04
E16P	1.87
E16N	2.95
E16A	2.25
E16D	2.87
E16F	2.04
E16Y	3.4
E16C	2.5
E16K	3.41
E16H	3.4
D13G	2.78
D13F	3.38
D13I	3.44
D13V	3.37
D13L	3.27
D13A	2.99
D13Q	3.23
D13T	3.18
D13Y	1.6

Variant	protein stability index
D13N	2.42
D13K	2.85
D13M	2.65
D13H	2.47
D13R	2.26
D13S	2.57
D13E	2.74
D13P	2.4
D13C	2.21
D10W	3.23
S18P	2.57
S18F	2.02
S18L	4.02
S18Y	2.11
S18N	2.91
S18T	2.54
S18V	2.45
S18W	3.1
S18C	3.71
S18G	2.81
S18A	1.76
S18E	2.4
S18H	3.19
S18D	2.42
S18K	3.26
S18I	2.48

Variant	protein stability index
S18M	3.36
S18R	2.39
F14W	2.71
F14I	2.31
F14H	1.94
F14Q	1.89
F14D	2.42
F14A	2.31
F14K	1.99
F14E	2
F14N	2.27
F14T	2.5
F14S	1.84
F14P	2.55
F14Y	2.92
F14C	2.76
F14L	1.91
F14M	2.1
F14V	2.05
F14R	2.37
F14G	1.82
F19Y	1.67
F19V	2.06
F19M	1.68
F19L	2.26
F19N	1.64

Variant	protein stability index
F19H	1.25
F19E	1.67
F19Q	1.91
F19S	1.66
F19P	1.92
F19I	3.34
F19W	3.83
F19R	2.21
F19T	2.04
F19D	2.11
F19G	2.16
F19K	1.95
F19C	1.49
F19A	1.69
T21P	3.61
T21N	2.27
T21F	3.34
T21A	2.61
T21G	3.28
T21K	2.3
T21E	2.4
T21Y	2.49
T21I	2.9
T21Q	2.22
T21L	3.84
T21S	2.18

Variant	protein stability index
T21M	3.19
T21H	1.47
T21V	3.86
T21W	2.76
T21D	1.71
C24H	2.43
C24D	1.64
C24G	2.09
C24Q	2.85
C24A	2.73
C24K	1.92
C24L	2.66
C24T	2.24
C24P	1.74
C24R	2.27
C24M	3.61
C24Y	2.53
C24N	1.47
C24S	2.78
C24F	3.29
C24E	2.04
N23H	2.16
N23Y	1.61
N23I	2.13
N23K	1.75
N23L	3.54

Variant	protein stability index
N23P	1.39
N23Q	3.51
N23R	2.88
N23G	4.12
N23W	2.05
N23A	2.62
N23S	2.54
N23T	2.7
N23V	2.89
N23E	2.27
N23C	3.73
N23M	1.83
N23D	2.84
K11C	2.65
K11L	2.42
K11Y	3.27
K11P	2.72
K11N	2.42
K11D	2.86
K11I	3.4
K11R	3.1
K11Q	3.58
K11F	3.16
K11V	3.4
K11G	2.57
K11E	2.95

Variant	protein stability index
K11H	2.24
K11T	2.84
K11S	3.53
K11W	3.22
K11A	2.13
K11M	4.28
P17C	2.42
P17I	2.35
P17L	3.54
P17G	2.03
P17D	1.47
P17T	3.13
P17K	2
P17E	2.18
P17V	4.75
P17Q	2.51
P17M	2.69
P17S	2.03
P17A	2.74
P17W	4.64
P17F	2.3
P17N	2.05
P17H	3.52
P17Y	3.1
V20Y	1.91
V20S	2.47

Variant	protein stability index
V20W	2.15
V20E	2.26
V20M	2.5
V20N	2.73
V20C	2.37
V20A	2.2
V20P	1.62
V20T	2.58
V20L	3.22
V20R	2.53
V20F	3
V20D	1.76
V20K	1.86
V20I	2.54
V20G	1.61
V20H	2.32
V20Q	1.79
F12I	2.05
F12T	2.22
F12K	1.99
F12Y	2.79
F12C	2.74
F12W	3.92
F12R	1.77
F12L	3.58
F12P	1.61

Variant	protein stability index
F12M	2.05
F12S	1.71
F12D	1.69
F12A	2.4
F12N	1.61
F12E	1.92
F12V	2.47
F12H	2.07
F12Q	1.69
F12G	2.05
G22Y	1.85
G22T	2.24
G22K	2.1
G22S	2.07
G22V	4.43
G22E	2.16
G22R	1.87
G22C	2.71
G22F	1.68
G22H	3.63
G22N	2.16
G22M	3.08
G22Q	2.74
G22I	2.8
G22A	2
G22P	3.09

Variant	protein stability index
G22W	3.23
G22L	2.03
C15N	2.98
C15P	3.43
C15G	3.49
C15M	1.98
C15S	2.04
C15F	3.17
C15V	2.05
C15W	2.31
C15K	2.43
C15T	2.3
C15R	2.15
C15I	3.14
C15Q	3.22
C15E	2.06
C15H	2.62
C15A	2.24
C15L	3.34
C15Y	3.03
C15D	2.14
